Experiment: yeast display, Sf9 membrane polyspecificity reagent, FACS + sequencing; frameworks hold sequencing errors
Procedure, shortened: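 Genes from sorted yeast were amplified by colony PCR, read by MiSeq 2 × 250 sequencing and filtered on CDR length. These cells carried a synthetic nanobody library in Saccharomyces cerevisiae BJ5465 and were sorted by FACS into low and high (top ~1%) gates on anti-HA and streptavidin fluorescence. Polyreactivity is labelled according to the gate of origin.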

Sequence	polyreactivity (PSR sort gate)
QVQLVESGGGLVQAGGSLRLSCAASGRNFPLNGMGWYRQAPGKERELVAAISYRGGSTYYADSVKGRFTISRDNPKNTVYLQMNSLKPEDTAVYYCAADYVSRRYYYWGQGTQVTVSS	high polyreactivity
QVQLVESGGGLVQAGGSLRLSCAASGRNFRDYDMGWYRQAPGKERELGAAITYDGYSTYYADSVKGRFTISRDNAKNTVYLQMNSLKPEDTAVYYCNADDDVTYFTYYSGGLYYWGQGTQVTVSS	low polyreactivity
QVQLVESGGGLVQAGGSLRLSCAASGRNFRRYAMGWYRQAPGKERELVATISGSGTSTYYADSVKGRFTISRDNAKNTVYLQMNSLKPEDTAVYYCAAGNPYYRTSQYYHWGQGTQVTVSS	high polyreactivity
QVQLVESGGGLVQAGGSLRLSCAASGRNFRSYVMGWYRQAPGKERELVASIRNRGGTTYYADSVKGRFTISRDNAKNTVYLQMNSLKPEDTAVYYCNAAPARTVYAQSSYVLYDYWGQGTQVTVSS	low polyreactivity
QVQLVESGGGLVQAGGSLRLSCAASGRNFRTNAMGWYRQAPGKERELVAAITWRGGNTYYADSVKGRFTISRDNAKNTVYLQMNSLKPEDTAVYYCATAYRYYPSPYDYWGQGTQVSVSS	high polyreactivity
QVQLVESGGGLVQAGGSLRLSCAASGRNFSANAMGWYRQAPGKEREMVATISSGGRTNYADSVKGRFTISRDNAKNTVYVQMNSLKPEDTAVYYCAKRGPYNRWYGRYDYWGQGTQVTVSS	low polyreactivity
QVQLVESGGGLVQAGGSLRLSCAASGRNFSHNAMGWYRQAPGKERELVAAISSRAGRTYADSVKGRFTISRDNAKYTVYLQMNSLKQEDTGVYYCAVRSKGKDVGYWGQGTQVTVSS	high polyreactivity
QVQLVESGGGLVQAGGSLRLSCAASGRNFSRNAMGWYRQAPGKERELVAAISSGGRTKYADSVKGRFTISRDNAKNTVYLQMNSLKPEDTAVYYCAATDPRSWYGRGRYDYWGQGTQVTVSS	high polyreactivity
QVQLVESGGGLVQAGGSLRLSCAASGRNFSSYALGWYRQAPGKERELVAAIRYDAGSTYYADSVKGRFTISRDNAKNTVYLQMNSLKPEDTAVYYCAAGIYSSRHSPYGYWGQGTQVTVSS	high polyreactivity
QVQLVESGGGLVQAGGSLRLSCAASGRNFYTYTMGWYRQAPGKERELVAAISKSGTSTYYADSVKGRFTISRDNAKNTVYLQMTSLKPEDSAVYYCAARAYYARFLMGYWGQGTQVTVSS	high polyreactivity
QVQLVESGGGLVQAGGSLRLSCAASGRNFYYYAMGWSRQAPGKERELVAAISWSGGSTRYADSVKGRFTISRDNPKNTVYLQMNSLKPEDTAVYYCAAEPDYWVGWIRYDYWGQGTQVTVSS	low polyreactivity
QVQLVESGGGLVQAGGSLRLSCAASGRNFYYYTMGWYRQAPGKERALVASISQSGARTYYADSVKGRFTISRDNSKNTVYLQMNSLKPVYTAVYYCNAVGTGGYHYWGQGTQVTVSS	high polyreactivity
QVQLVESGGGLVQAGGSLRLSCAASGRNIHFNAMGWYRQAPGKERELVAGITFIGTSTYYADSVKGRFTISRDNAKNTVYLQMNSLKPDDTAVYYFAASAVALPYYAGDYDYWGQATQVTVSS	low polyreactivity
QVQLVESGGGLVQAGGSLRLSCAASGRNIYSNAMGWYRQAPGKERELVAAIRWRDGATYYADSVKGRFTISRDNAKNTVYLQMNSLKPEDTAVYYCAAVYWGEEYEYWGQGTQVTVSS	low polyreactivity
QVQLVESGGGLVQAGGSLRLSCAASGRNLIAYAMGWYRQAPGKEREFVAAIRADDGRTYYADSVKGRFTISRDNAKITVYLQMTSLKPEDTAVYYCAAEWYWLHSWFDYWGQGTQVTVSS	high polyreactivity
QVQLVESGGGLVQAGGSLRLSCAASGRNLLGNAMGGYRQAPGKEREFVAAISYRGGSTYYADSVKGRFTISRDNEKNTVYLQMNSLKPVDNAVPYCAASSLKYSRFDYGGQGTQVTVSS	low polyreactivity
QVQLVESGGGLVQAGGSLRLSCAASGRNLYYNAMGWYRHAPGKERELVAAITFRGGSTSYADSVKGRFTISRDNAKNTVYLQMNSLKPEDTAVYYCAAGYTWRQSWYPFDYWGQGTQVTVSS	high polyreactivity
QVQLVESGGGLVQAGGSLRLSCAASGRPFDSNAMGWYRQGPGKERELVAAISYGCGTTHYADSVKGRFTISRDNAKNTVYLQMNSLKPEDTAVYYCAADPELQWESVTIGEYDYWGQGTQVTVSS	low polyreactivity
QVQLVESGGGLVQAGGSLRLSCAASGRPFVSYALGWYRQAPGKERELVAVITGGTGNTYYADSVKGRFTISRDNAKNTVYLQMNSLIPEDTAVYYCNARGGYYKFRYPLYYWGQVTQVTVSS	high polyreactivity
QVQLVESGGGLVQAGGSLRLSCAASGRSFGTNAMVSYIQAPGKEREFVAAIRKSGATTYYADSVKGRFTISRDNAKNTVYLQMNSLKPDDTAVYYCAADFFYYGKWYSGYYWGQGTQVTVSS	high polyreactivity

Sequence	polyreactivity (PSR sort gate)
QVQLVESGGGLVQAGGSLRLSCAASGRSFTSNTMGWYRPAPGKERELVAAITSSGGSMYYADSVKGRFTISRDNANNTVYLQMNSLKPEDTAVYYCAADTIGYHYWYDYWGQGTQVTVSS	low polyreactivity
QVQLVESGGGLVQAGGSLRLSCAASGRSFVLYTMGWSRQAPGKEREWVAAISGSGGRTYYADSVKGRFTISRDHAKNTVNLQMNSLKPEDTAVYYCAAYGQGLPLYGYWGPGTQVTVSS	high polyreactivity
QVQLVESGGGLVQAGGSLRLSCAASGRSFWKYAMGWCRQAPGKERELVAAITSDGSTYYADSVKGRFTISRDNAKNTVYFQMNSLKPEDTADYYCAAQQWFEYDYWGQGTQVTVSS	low polyreactivity
QVQLVESGGGLVQAGGSLRLSCAASGRTCDRNTMGWYRQAPGKERELVAAISGSSARTYYADSVKGRFTISRDNAKNTVYLQMNSLKPEDTAVYYCNAEYGARAQHYEGDSWGQGTQVTVSS	high polyreactivity
QVQLVESGGGLVQAGGSLRLSCAASGRTCWSYAMGWYRQAPGKEREVVATITGRGGSTYYADSVKGRFTISRDNAKNTVYLQRNSLKPEDTAVYYCAVRSKYRRTFGSWGQGTQVTVSS	high polyreactivity
QVQLVESGGGLVQAGGSLRLSCAASGRTFAANTMGWYRQAPGKERELVAAISSSGGSTSYADSVKGRFTISRDNAKNTVYLQMNSLKPEDTAVYYCNTLLRRDFNYWGQGTQVTVSS	high polyreactivity
QVQLVESGGGLVQAGGSLRLSCAASGRTFAAYAMGWYRPAPGKESELVAAISSSSGNTYYADSVKGRFTISRDNAKNTVYLQMNSLKPEDTAVYYCNAQRRFNANYWYDYWGQGTQVTVSS	high polyreactivity
QVQLVESGGGLVQAGGSLRLSCAASGRTFAAYAMGWYRQAPGKEREFVADITYSGGSTTYADSVKGRFTISRDNAKNTVYLQMNSLKPEDTAVYYCNKLAYTRGWRGFVWYDYWGQGTQVTVSS	low polyreactivity
QVQLVESGGGLVQAGGSLRLSCAASGRTFAAYAMGWYRQAPGKERELGAAISIGGSTNYADSVKGRFTISRDNAKNTVYLQMNSLKPEDSAVYYCAAPWYRGGTTESYYWGQGTQVTVSS	high polyreactivity
QVQLVESGGGLVQAGGSLRLSCAASGRTFAAYAMGWYRQAPGKERELVAGITSSSVRTYYADSVKGRFTISRDNAKNTVYLQMNSLKPEDTAVYYCNARADGSSSRWRPYSKFYYWGQGTQVTVSS	low polyreactivity
QVQLVESGGGLVQAGGSLRLSCAASGRTFADNAMGWYRQAPGKERELVASISSGTSTNYADSVKGRFTISRDNAKNTVYLQMNSLKPEDTAVYYCAADFSVYTEEDDSWGHGTQVTVSS	low polyreactivity
QVQLVESGGGLVQAGGSLRLSCAASGRTFAGNAMGWYRQAPGKERELVAAISQGGGSTYYADSVKGRFTISRDNAKNTVYLQMNSLKPEDTAVYYCAAEIPRRWASFATLWYDYWGQGTQVTVSS	low polyreactivity
QVQLVESGGGLVQAGGSLRLSCAASGRTFAGNAMGWYRQAPGKEREMVAAISVSGSTTYYADSVKGRFTISRDNAKNTVYLQMNSLKPEDTAVYYCAARGLTYRSDMYYWGQGTQVTVSS	low polyreactivity
QVQLVESGGGLVQAGGSLRLSCAASGRTFAGYAMGWYRQAPGKERELVAAITNGGSTKYADSVKGRFTISRDNAKNTVYLQMNSLKPEDTAVYYCNARKRFYSGNTLMYYWGQGTQVTLSS	high polyreactivity
QVQLVESGGGLVQAGGSLRLSCAASGRTFAINAMGWHRQAPGKERELVADITTDGSTYYADSVKGRFTISRDNAKNTVYLQMNSLKPEDTAVYYCATDSLDYFIRFKQFGYWGQGTQVTVSS	low polyreactivity
QVQLVESGGGLVQAGGSLRLSCAASGRTFAKYAMGWYRQAPGKERELVAAITRGDTTNYADSVKGRFTISRDNAKNTVYLQMNSLKPEDTGVYYCAATPDPPHTYEYWGQGTQVTVSS	low polyreactivity
QVQLVESGGGLVQAGGSLRLSCAASGRTFALYAMGWYRQAPGTERELVASISWRGGSTYYADSVKGRFTISRDNAKNTVYLQMNSLKPEDTAVYYCAADTWSYGPLNYRLEYWGQGTQVTVSS	low polyreactivity
QVQLVESGGGLVQAGGSLRLSCAASGRTFANNAMGWYRQAPGKERELVAAITASGGRTYYADSVKGRFTISRDNAKNTVYLQLNSLKPEDTAVYYCAKRGYASGSKWDYGYWGQGTQVTVSS	high polyreactivity
QVQLVESGGGLVQAGGSLRLSCAASGRTFANYAMGWYRQAPGKERELVAAISYSGGSTYYADSVKGRFTISRDNAKNTVYLQMNSLKPVDTAVYYCAKRWTGLGGYYYWGQGTQVTVSS	high polyreactivity
QVQLVESGGGLVQAGGSLRLSCAASGRTFAPYAMGWYRQAPGKERELVAGITYRTGNTYYADSVKGRFTISRDNAKNTVYLQMNSLKPEDTAVYYCAAYSGYYRPRYNYWGQGTQVTVSS	high polyreactivity
